Earlier results on one substance are cited in paper PMC10601247.

Data set [1] deals with flotillin-1 (Homo sapiens) (UniProt O75955). Kind of data set: SPR. (In general: In SPR one partner is held on a chip, and binding of the other changes the refractive index at the surface.)
Data set [2] has as its target flotillin-2 (Homo sapiens) (UniProt Q14254). Kind of data set: SPR.
Sequence of UniProt Q14254 (Q14254 2-428): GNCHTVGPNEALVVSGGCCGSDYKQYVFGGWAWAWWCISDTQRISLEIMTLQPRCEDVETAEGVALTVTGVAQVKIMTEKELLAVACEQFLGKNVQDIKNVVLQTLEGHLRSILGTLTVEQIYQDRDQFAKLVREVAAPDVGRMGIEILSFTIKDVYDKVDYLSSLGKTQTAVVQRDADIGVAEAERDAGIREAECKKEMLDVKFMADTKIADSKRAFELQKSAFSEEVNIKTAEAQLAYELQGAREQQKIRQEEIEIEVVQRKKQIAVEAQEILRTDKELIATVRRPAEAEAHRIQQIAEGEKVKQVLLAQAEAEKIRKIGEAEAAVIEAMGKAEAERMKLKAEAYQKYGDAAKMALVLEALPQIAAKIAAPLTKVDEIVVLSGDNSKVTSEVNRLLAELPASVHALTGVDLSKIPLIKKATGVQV

Sequence of UniProt O75955 (O75955 whole entry): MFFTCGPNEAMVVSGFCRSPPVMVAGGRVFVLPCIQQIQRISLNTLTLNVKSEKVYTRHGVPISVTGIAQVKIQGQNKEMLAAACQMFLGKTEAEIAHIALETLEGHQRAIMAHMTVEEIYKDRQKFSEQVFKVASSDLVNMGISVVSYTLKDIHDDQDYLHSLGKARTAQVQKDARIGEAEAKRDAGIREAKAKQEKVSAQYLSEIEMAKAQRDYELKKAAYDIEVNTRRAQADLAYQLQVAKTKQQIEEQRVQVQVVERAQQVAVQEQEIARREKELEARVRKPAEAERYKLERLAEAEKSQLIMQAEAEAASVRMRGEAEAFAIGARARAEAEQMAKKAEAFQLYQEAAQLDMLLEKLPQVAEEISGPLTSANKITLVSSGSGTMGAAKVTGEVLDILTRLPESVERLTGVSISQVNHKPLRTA

On to MPP1 (from UniProt Q00013), for which the values for the Kd in data set [1] and in data set [2] were 23 nM and 31 nM, respectively.
